These results are taken from patent US20210269501A1.

Some results are limits rather than exact numbers.

In this experiment the target is NKG2D ligands (NKG2DLs) on human TNBC cell lines. The experiment can be described thus: cell-based or functional assay.
Turning to NKG2D_41BB_CD3Zeta CAR (receptor), the cytotoxicity (overnight luminescence based assay, MDA-MB-231 fLuc) was over 60%.

In turn, NKG2D_CD3Zeta CAR (receptor) came in with a cytotoxicity (overnight luminescence based assay, MDA-MB-231 fLuc) of over 60%.

NKG2D_CD27_CD3Zeta CAR (receptor) gave a cytotoxicity (overnight luminescence based assay, MDA-MB-231 fLuc) of over 60%.
